Laboratory results reported in publication PMC7969031.

What was measured:
[1] = molecular target: Cas4 of the Synechocystis sp. PCC6803 type I-D CRISPR-Cas system, untagged (Synechocystis sp. PCC6803); assay: SEC-MALS
[2] = molecular target: Cas1 of the Synechocystis sp. PCC6803 type I-D CRISPR-Cas system, untagged (Synechocystis sp. PCC6803); assay: crystal structure
[3] = molecular target: Cas1 of the Synechocystis sp. PCC6803 type I-D CRISPR-Cas system, untagged (Synechocystis sp. PCC6803); assay: negative-stain electron microscopy
[4] = molecular target: Cas2 of the Synechocystis sp. PCC6803 type I-D CRISPR-Cas system, untagged (Synechocystis sp. PCC6803); assay: crystal structure
Cas1 (type I-D) = molecular target: T1, Cas1 (type I-D) (Synechocystis sp. PCC6803, UniProt Q6ZEI2 1-325); assay: EMSA
T1 sequence: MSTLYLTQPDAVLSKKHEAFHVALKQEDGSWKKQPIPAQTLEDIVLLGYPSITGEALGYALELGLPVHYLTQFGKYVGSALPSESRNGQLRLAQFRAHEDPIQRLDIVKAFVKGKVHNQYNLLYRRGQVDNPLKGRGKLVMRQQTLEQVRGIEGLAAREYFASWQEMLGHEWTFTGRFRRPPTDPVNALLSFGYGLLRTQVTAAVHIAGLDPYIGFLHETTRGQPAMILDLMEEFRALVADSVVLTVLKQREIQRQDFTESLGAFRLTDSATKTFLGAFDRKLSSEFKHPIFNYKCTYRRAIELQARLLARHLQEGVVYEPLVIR

[5] = molecular target: T2, Cas1 (type I-D);Cas2 (type I-D) (Synechocystis sp. PCC6803;Synechocystis …, UniProt Q6ZEI2;Q6ZEI1 1-325;1-94, |); assay: EMSA
T2 sequence 1: T1 sequence
T2 sequence 2: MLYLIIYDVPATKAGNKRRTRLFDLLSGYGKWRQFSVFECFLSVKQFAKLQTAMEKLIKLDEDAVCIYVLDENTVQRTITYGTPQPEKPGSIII

[6] = molecular target: T2, Cas1 (type I-D);Cas2 (type I-D); assay: X-ray crystal structure
[7] = molecular target: T2, Cas1 (type I-D);Cas2 (type I-D); assay: X-ray crystal structure; remark: listed apart in the source

Molecule “Cas1 of the Synechocystis sp. PCC6803 type I-D CRISPR-Cas system, untagged (natural protein)” has a stoichiometry N (Cas1 per Cas4) [1] of 2, a stoichiometry N [2] of 2 and a stoichiometry N [3] of 2.

“Cas2 of the Synechocystis sp. PCC6803 type I-D CRISPR-Cas system, untagged (natural protein)” was tested, and the stoichiometry N [4] was 2.

B1: dsDNA EMSA substrate (dsDNA)
DNA 1: TGTGCCCCTGGCGGTCGCTTTCTTTTT
DNA 2: AAAAAGAAAGCGACCGCCAGGGGCACA
B1: binds (Cas1 (type I-D)); binds [5].

B2: 22-7-7 double-forked prespacer (dsDNA)
DNA 1: TTTTTTTTGTGCCCCTGGCGGTCGCTTTCTTTTTTT
DNA 2: TTTTTTTGAAAGCGACCGCCAGGGGCACATTTTTTT
B2: binds [6].

B3: 26-5-5 double-forked prespacer (dsDNA)
DNA 1: TTTTTTTGTGCCCCTGGCGGTCGCTTTCAAGTTTTT
DNA 2: TTTTTCTTGAAAGCGACCGCCAGGGGCACAATTTTT
B3: binds [7].
